Test system: T1, His-ChvI(D52E) D52E (Agrobacterium tumefaciens C58), ORF:0a874367
T1 sequence: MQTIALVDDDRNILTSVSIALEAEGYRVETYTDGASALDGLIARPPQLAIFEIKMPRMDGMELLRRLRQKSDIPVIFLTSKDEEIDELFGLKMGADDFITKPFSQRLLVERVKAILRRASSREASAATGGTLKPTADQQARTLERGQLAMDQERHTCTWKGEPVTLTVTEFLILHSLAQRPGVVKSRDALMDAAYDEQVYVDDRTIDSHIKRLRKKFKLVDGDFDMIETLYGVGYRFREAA
Assay: EMSA

Sequence	binding
TCCGCATCCATGGGAATAGCAGTCTTTCCCCACCTTGCCTCCACGCTGGAGCAGCTTTTCGACAGGGCAGACTATGCCCTCTACCACGCCAAGAAAACCCGGCGTGGCGATGCCGTTCTGTTCGATGCGGAACACGAAAAGCAGATCAATATCGAAGCCCGCATTGAGCATCTGCTCAAGCAGAGCGATCTGAAAAACGAACTTTCGGTGATGTTTCAGCCGATCGTGGATATACGCGACGGAAGGATC (double strand) [atu4353 coding region control fragment]	no binding
TCGAGGAGTAGTCTATCCCCAGAAAATAGTAATGGATTTTTTGTAGTTACTTCCCTTACGTGAGGCTATTAATCAGACAGACTTATTCAAAATGTGTCTAAATTGTGGCGTCTACTCCCTAATCTAATCTGATAAAAAATAAACTTCGGGGTGGACAACCCGGTTTCATCATCATAGTTATTCCACGTCACGTTGTGGAATGAACCCGGGCAGGAGGCTCATTGCATGTCGGTACCCC (double strand) [imp-hcp intergenic region (T6SS regulatory region), 230 bp]	binds
